Experimental data reported in patent US12331106B2, “Anti-angiopoietin-2 antibodies that induce Tie2 activation” (Institute for Basic Science, priority 2018, dated 2025).

T1: hAng2 (Homo sapiens, UniProt O15123)
T1 sequence (O15123 19-496): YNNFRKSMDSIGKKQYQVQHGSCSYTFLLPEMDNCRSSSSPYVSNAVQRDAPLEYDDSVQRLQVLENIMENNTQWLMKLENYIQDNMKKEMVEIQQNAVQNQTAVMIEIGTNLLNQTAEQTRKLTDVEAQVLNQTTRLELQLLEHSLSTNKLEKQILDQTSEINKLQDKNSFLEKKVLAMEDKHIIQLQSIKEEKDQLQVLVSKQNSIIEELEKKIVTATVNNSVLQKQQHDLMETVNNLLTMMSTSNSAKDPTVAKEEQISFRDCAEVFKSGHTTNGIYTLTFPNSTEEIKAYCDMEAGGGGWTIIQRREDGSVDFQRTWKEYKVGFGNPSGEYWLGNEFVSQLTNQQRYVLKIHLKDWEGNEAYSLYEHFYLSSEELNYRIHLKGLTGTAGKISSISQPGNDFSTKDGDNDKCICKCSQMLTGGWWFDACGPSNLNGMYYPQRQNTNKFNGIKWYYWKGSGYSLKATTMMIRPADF


Legend:
[1] = system: LLC (Lewis Lung Carcinoma) tumor; test: Tumor growth inhibition in LLC subcutaneous model; type: in vivo, C57BL/6 mice; details: LLC s.c.; antibody 10 mg/kg i.p. every 2-3 days; Cpt 3 mg/kg i.p. once
Description: 2C8H11 anti-Ang2 antibody was tested for its ability to inhibit tumor growth in LLC (Lewis Lung Carcinoma) cell line tumor model. Specifically, LLC cell line (ATCC) was cultured in DMEM (GIBCO™) supplemented with 10% FBS (GIBCO™). LLC cells (1×10^6 in 100 μl of PBS) were subcutaneously injected into 6˜8-week-old C57BL/6 mice (Jackson Laboratory) which were anesthetized with a mixture of Ketamine and Xylazine. When the volume of the tumors reached 50˜100 mm^3, the mice were intraperitoneally administered with 10 mg/kg of 2C8H11 antibody every 2˜3 days. Cisplatin (Cpt) was injected intraperitoneally once at a dose of 3 mg/kg in both monotherapy and combination therapy groups. The changes in tumor volume was tracked over the following days. Tumor volume (V) was measured using the formula: V=(width^2×length)/2 V=(width^2×length)/2
The experiment was performed in 4 groups: Fc (control group), Fc+Cpt group, 2C8H11 group, and 2C8H11+Cpt group. […] Meanwhile, combined treatment with 2C8H11 and Cpt delayed tumor growth by 47% compared with Fc.

[2] = system: downstream signaling of the Tie2 receptor (Akt phosphorylation) in HUVECs; test: Akt phosphorylation in HUVECs by humanized anti-Ang2 antibodies (immunoblot); type: cell-based, human; details: hAng2 1 μg/ml, 30 min, antibody 0.5 μg/ml, maintained until 50 μg/ml
Description: To investigate whether the humanized anti-Ang2 antibodies induce the downstream signaling of the Tie2 receptor in endothelial cells, HUVECs (LONZA™) were treated with human Ang2 protein together with humanized anti-Ang2 antibody. Then, the level of Akt phosphorylation, the main downstream signaling protein of Tie2 receptor was measured by immunoblotting. To compare the degree of Akt activation, cells were treated with full-length hAng2 (R&D® Systems) alone or antibody alone in the experiment.
Specifically, HUVEC cells (1×10^5 cells/ml) were cultured in EGM-2 (LONZA™) at 37° C. in 60 mm culture dish. Cells of 90% confluency were incubated with EBM-2 (LONZA™) for 4 hrs. The serum-starved HUVECs were treated with the mixture of anti-Ang2 antibody and hAng2 protein (1 μg/ml, R&D® Systems), and further incubated for 30 min. The cells were washed with cold PBS, treated with lysis buffer, and lysed at 4° C. for 20 min. Then, the cell lysates were prepared by centrifugation at 13000 rpm for 15 min. 5× SDS sample buffer was added to the cell lysate and the mixture was boiled at 95° C. for 5 min. Then, the mixture was subjected to SDS-PAGE and subsequent Western blotting.
To investigate the phosphorylation of Akt, the membrane was blocked with 5% skim milk-containing TBST for 1 hr at RT, and incubated with anti-phospho-Akt antibody (S473) at 4° C. for about 8 hrs. […]

[3] = system: Tie2 receptor; test: Tie2 phosphorylation in HUVECs (immunoprecipitation/Western); type: cell-based, human; details: antibody 0.02-50 μg/ml with hAng2 1 μg/ml, 30 min
Description: Ang2 binds to the Tie2 receptor and acts as a weak agonist or antagonist. The anti-Ang2 antibody developed in this invention binds to Ang2 to induce Ang2-antibody complexes, further causing clustering of Tie2 receptors and consequently enhancing activation of Tie2 receptor. Experiments were conducted to analyze the effect of anti-Ang2 antibody on Tie2 phosphorylation using HUVECs.
Specifically, HUVECs (LONZA™) were cultured in EGM-2 (LONZA™) at 37° C. and 5% CO2 concentration in a 100 mm culture dish. At 80-90% confluency, the cells were changed to EBM-2 (LONZA™) medium for 2 hrs˜ 6 hrs for serum starvation. Humanized anti-Ang2 antibodies at various concentrations (0.02 μg/ml to 50 μg/ml) were mixed with hAng2 protein (1 μg/ml, R&D® Systems) for 30 min. Then, the mixtures were treated with the cultured cells and further incubated for 30 min. The cells were washed twice with cold PBS and then lysed in 1000 μl of lysis buffer (10 mM Tris-Cl pH 7.4, 150 mM NaCl, 5 mM EDTA, 10% glycerol, 1% TRITON™ X-100 (non-ionic polyoxyethylene surfactant), protease inhibitor, phosphatase inhibitor) and then lysed at 4° C. for 60 min. Cell extracts were prepared and centrifuged at 12,000 rpm for 10 min. The supernatant was quantitated by bicinchoninic (BCA) assay.
To 0.5 mg of cell lysate, 1 μg of Tie2 antibody (R&D® Systems, AF313) was added and incubated overnight at 4° C. […]

[4] = system: Tie2 receptor clustering / FOXO1 translocation in HUVECs; test: Tie2 clustering and FOXO1 translocation in HUVECs (immunofluorescence); type: cell-based, human; details: HUVECs, 30 min
Description: Tie2 clustering at cell-cell junction area and FOXO1 translocation from nucleus to cytosol by anti-Ang2 antibodies were examined in HUVECs by immunofluorescence. Specifically, HUVECs were seeded on 8 well slide chamber (Lab-Tek™ II) and maintained in EGM-2 medium for 2-3 days. At 100% confluence, the cells were serum starved with EBM-2 medium for 4 hrs and then treated with 1 μg/ml anti-Ang2 antibodies together with 1 μg/ml of hAng2 for 30 min. Thereafter, the cells were fixed with 4% formaldehyde in PBS at room temperature (RT) for 10 min, permeabilized with 0.1% TRITON™ X-100 (non-ionic polyoxyethylene surfactant) in PBS, blocked with 1% BSA in PBS at RT for 60 min, and incubated with primary antibodies at RT for 1 hr. The primary antibodies for hTie2, FOXO1, and Human Fc were used. The cells were then incubated with secondary antibodies (Invitrogen) in the dark at RT for 1 hr and mounted with VECTASHIELD® mounting medium with DAPI (Vector Labs, antifade mounting media optimized for immunofluorescence applications). Images were taken with a laser scanning confocal microscope (LSM880, Carl Zeiss).
2C8H11-induced Tie2 clustering and FOXO1 translocation was examined in a time-course study (from 10 min to 240 min). […] 6-4: Inhibition of Vascular Permeability by Humanized Anti-Ang2 Antibodies

[5] = system: HUVEC monolayer; test: In vitro vascular permeability (leakage) assay, TNF-α induced, FITC-dextran; type: cell-based, human; details: HUVECs; pre-treatment antibody 1 μg/ml with Ang2 1 μg/ml 30 min; TNF-α 100 ng/ml 22 hr
Description: Vascular leakage assay was carried out in HUVECs using In Vitro Vascular Permeability Assay Kit (Millipore®) according to the manufacturer's instruction. HUVECs were seeded into the insert of the transwell plate and cultured for 3 days for 100% confluence. The HUVECs were pre-incubated with Ang2 (1 μg/ml), Ang2 (1 μg/ml) together with Control, 2C8H11 or 4B9H11 antibody (1 μg/ml) for 30 min, and then TNF-α (100 ng/ml) was added, and the cells were incubated at 37° C. for 22 hr. FITC-dextran was added to the upper chamber and incubated for 20 min. Passage of FITC-dextran though the HUVEC monolayer was measured by a fluorescence reader at excitation and emission wavelengths of 485 and 535 nm, respectively.

[6] = molecular target: T1, hAng2; test: OCTET affinity of humanized anti-Ang2 antibodies against hAng2; type: binding; details: humanized 4B9 antibodies (IgG1) fixed on AR2G biosensor; hAng2 50-0 nM

Molecule | tumor growth inhibition compared with Fc [1] | Akt phosphorylation [2] | phosphorylation of Tie2 [3] | co-localization of antibody with Tie2 receptor ([4]; anti-human Fc staining) | Tie2 translocation/clustering to cell-cell contact ([4]; antibodies 1 μg/ml with hAng2 1 μg/ml) | FOXO1 translocation from nucleus to cytosol ([4]; compared to serum-starved control) | vascular leakage induced by TNF-α (passage of FITC-dextran) [5] | Kdis [6] [s⁻¹] | Kon [6] [M⁻¹ s⁻¹]
N.N.[Cl][Pt][Cl] [Fc+Cpt, Cisplatin, reference compound] | similar | – | – | – | – | – | – | – | –
4B9H11: humanized anti-Ang2 human IgG1 antibody from mouse 4B9; VH SEQ ID NO: 43, VL SEQ ID NO: 44 (antibody, V domains shown, human IgG1 constant regions; VH; VL) VH: QVQLVESGGGLVKPGGSLRLSCAASGFTFSDYYMYWIRQAPGKGLEWVSTISVGGSFTYYPDSVKGRFTISRDNAKNSLYLQMNSLRAEDTAVYYCARDWGLRPWFVYWGQGTLVTVSS VL: DIQMTQSPSSLSASVGDRVTITCKASQDVSTAVAWYQQKPGKAPKLLIYWASTRHTGVPSRFSGSGSGTDFTLTISSLQPEDFATYYCQQHYSTPPTFGQGTKVEIK | – | increased markedly | strongly induced in a dose-dependent manner | co-localized with clustered Tie2 receptor at cell-cell contact and endocytosed Tie2 receptor in cytosol | induced Tie2 translocation/clustering to cell-cell contact | markedly disappeared in nucleus | significantly inhibited | 1.58e-06 | 92900
